Measurements: publication PMC5493754, “Myosin 7 and its adaptors link cadherins to actin” (Nature Communications, 2017)

T1: YFP-Full length (FL)-harmonin (harmonin-a1) (human, UniProt Q9Y6N9-1 1-552)
T1 construct: Harmonin-a1 (USH1C), human, residues 1-552 of UniProt Q9Y6N9-1; also called ^YFPFL (isoA); ^YFPFL; source: E. coli BL21 (DE3) Rosetta, purified (Glutathione Sepharose 4B, size-exclusion chromatography)
T1 sequence (looked up): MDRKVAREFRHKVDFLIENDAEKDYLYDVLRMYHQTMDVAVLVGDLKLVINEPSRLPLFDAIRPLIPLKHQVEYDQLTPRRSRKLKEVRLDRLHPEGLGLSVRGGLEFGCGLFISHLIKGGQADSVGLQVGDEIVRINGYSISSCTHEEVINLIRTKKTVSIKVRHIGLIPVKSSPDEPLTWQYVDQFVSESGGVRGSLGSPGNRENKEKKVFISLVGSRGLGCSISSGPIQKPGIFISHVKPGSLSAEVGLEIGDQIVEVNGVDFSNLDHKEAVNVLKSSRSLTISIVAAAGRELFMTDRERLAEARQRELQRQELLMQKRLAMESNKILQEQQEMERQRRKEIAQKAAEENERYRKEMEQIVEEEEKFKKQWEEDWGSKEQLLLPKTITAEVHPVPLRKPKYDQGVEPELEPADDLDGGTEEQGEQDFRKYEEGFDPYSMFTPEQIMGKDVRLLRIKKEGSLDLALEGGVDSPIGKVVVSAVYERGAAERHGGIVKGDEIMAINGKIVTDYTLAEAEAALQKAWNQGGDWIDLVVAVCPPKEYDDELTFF

T2: YFP-Myosin 7b MF2 (human, UniProt Q6PIF6 1605-2116)
T2 construct: Myosin 7b, human, MF2, residues 1605-2116 of UniProt Q6PIF6; pET14-YFP vector; also called ^YFPM7b MF2; source: E. coli (BL21-AI, BL21 (DE3) Rosetta or BL21-Gold (DE3)), purified (Histrap, CaptoQ, gel filtration)
T2 sequence (looked up): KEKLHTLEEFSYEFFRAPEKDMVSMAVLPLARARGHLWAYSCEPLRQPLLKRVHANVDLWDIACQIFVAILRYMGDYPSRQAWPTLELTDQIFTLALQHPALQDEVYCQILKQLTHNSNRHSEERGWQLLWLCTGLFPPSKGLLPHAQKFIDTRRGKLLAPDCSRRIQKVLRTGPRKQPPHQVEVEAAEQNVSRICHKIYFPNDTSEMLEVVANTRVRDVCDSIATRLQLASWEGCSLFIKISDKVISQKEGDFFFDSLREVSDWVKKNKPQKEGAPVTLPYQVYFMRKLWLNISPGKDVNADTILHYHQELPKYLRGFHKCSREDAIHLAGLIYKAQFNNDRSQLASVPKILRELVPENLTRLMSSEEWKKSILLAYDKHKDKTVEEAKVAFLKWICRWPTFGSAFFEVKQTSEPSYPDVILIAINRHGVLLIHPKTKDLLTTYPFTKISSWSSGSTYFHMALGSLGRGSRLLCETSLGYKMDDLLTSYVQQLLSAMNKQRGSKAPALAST

B1: Myosin 7a MF2 (domain or fragment, human, UniProt Q13402-1 1702-2215, looked up)
chain: TAEPEVRAKPYTLEEFSYDYFRPPPKHTLSRVMVSKARGKDRLWSHTREPLKQALLKKLLGSEELSQEACLAFIAVLKYMGDYPSKRTRSVNELTDQIFEGPLKAEPLKDEAYVQILKQLTDNHIRYSEERGWELLWLCTGLFPPSNILLPHVQRFLQSRKHCPLAIDCLQRLQKALRNGSRKYPPHLVEVEAIQHKTTQIFHKVYFPDDTDEAFEVESSTKAKDFCQNIATRLLLKSSEGFSLFVKIADKVLSVPENDFFFDFVRHLTDWIKKARPIKDGIVPSLTYQVFFMKKLWTTTVPGKDPMADSIFHYYQELPKYLRGYHKCTREEVLQLGALIYRVKFEEDKSYFPSIPKLLRELVPQDLIRQVSPDDWKRSIVAYFNKHAGKSKEEAKLAFLKLIFKWPTFGSAFFEVKQTTEPNFPEILLIAINKYGVSLIDPKTKDILTTHPFTKISNWSSGNTYFHITIGNLVRGSKLLCETSLGYKMDDLLTSYISQMLTAMSKQRGSRSGK
notes: Myosin 7a, human, C-terminal MyTH4-FERM domain (MF2), residues 1702-2215 of UniProt Q13402-1; Thrombin site of the vector replaced by an SSG linker; also called M7a MF2; Myo7a MF2; source: E. coli (BL21-AI, BL21 (DE3) Rosetta or BL21-Gold (DE3)), purified (Histrap, CaptoQ, gel filtration)
B2: Myosin 7b MF2 (domain or fragment, human, UniProt Q6PIF6 1605-2116, looked up)
chain: KEKLHTLEEFSYEFFRAPEKDMVSMAVLPLARARGHLWAYSCEPLRQPLLKRVHANVDLWDIACQIFVAILRYMGDYPSRQAWPTLELTDQIFTLALQHPALQDEVYCQILKQLTHNSNRHSEERGWQLLWLCTGLFPPSKGLLPHAQKFIDTRRGKLLAPDCSRRIQKVLRTGPRKQPPHQVEVEAAEQNVSRICHKIYFPNDTSEMLEVVANTRVRDVCDSIATRLQLASWEGCSLFIKISDKVISQKEGDFFFDSLREVSDWVKKNKPQKEGAPVTLPYQVYFMRKLWLNISPGKDVNADTILHYHQELPKYLRGFHKCSREDAIHLAGLIYKAQFNNDRSQLASVPKILRELVPENLTRLMSSEEWKKSILLAYDKHKDKTVEEAKVAFLKWICRWPTFGSAFFEVKQTSEPSYPDVILIAINRHGVLLIHPKTKDLLTTYPFTKISSWSSGSTYFHMALGSLGRGSRLLCETSLGYKMDDLLTSYVQQLLSAMNKQRGSKAPALAST
notes: also called M7b MF2; Myo7b MF2; source: E. coli (BL21-AI, BL21 (DE3) Rosetta or BL21-Gold (DE3)), purified (Histrap, CaptoQ, gel filtration)

Key:
Details in all cases: both partners purified
[1] = target: T1, YFP-Full length (FL)-harmonin …; experiment: MST; as a1 but 150 mM NaCl (for FL-Harmonin-a); YFP-fused partner constant at 100 nM, non-fluorescent protein titrated
[2] = target: T1, YFP-Full length (FL)-harmonin …; experiment: as above; remark: listed apart in the source
[3] = target: T2, YFP-Myosin 7b MF2; experiment: MST; YFP-fused partner constant at 100 nM, non-fluorescent protein titrated (16 two-fold dilutions); 20 mM Hepes pH 7.0, 100 mM NaCl, 1 mM EGTA, 0.5 mM TCEP, 0.05% Tween 20; Monolith NT.115
[4] = target: B1; experiment: as above
[5] = target: B2; experiment: as above

| Kd [4] | Kd [5] | Binder | also measured |
| --- | --- | --- | --- |
| – | – | Harmonin NPDZ1.PDZ2 (domain or fragment, human, UniProt Q9Y6N9-1 1-301, looked up, Harmonin-a1 (USH1C), human, N-terminal domain, PDZ1 and PDZ2, residues 1-301 of UniProt Q9Y6N9-1; source: E. coli BL21 (DE3) Rosetta, purified (Glutathione Sepharose 4B, size-exclusion chromatography)) MDRKVAREFRHKVDFLIENDAEKDYLYDVLRMYHQTMDVAVLVGDLKLVINEPSRLPLFDAIRPLIPLKHQVEYDQLTPRRSRKLKEVRLDRLHPEGLGLSVRGGLEFGCGLFISHLIKGGQADSVGLQVGDEIVRINGYSISSCTHEEVINLIRTKKTVSIKVRHIGLIPVKSSPDEPLTWQYVDQFVSESGGVRGSLGSPGNRENKEKKVFISLVGSRGLGCSISSGPIQKPGIFISHVKPGSLSAEVGLEIGDQIVEVNGVDFSNLDHKEAVNVLKSSRSLTISIVAAAGRELFMTDR | Kd [1]: 3.4 ± 0.1 µM |
| – | – | B1 | Kd [2]: 2.36 µM |
| – | – | B2 | Kd [2]: 2.05 ± 0.79 µM |
| – | – | Harmonin-a PDZ3c D546R (domain or fragment, human, UniProt Q9Y6N9-1 428-552, looked up, Harmonin-a1 (USH1C), human, residues 428-552 of UniProt Q9Y6N9-1; also called PDZ3c (isoA) D546R; source: E. coli BL21 (DE3) Rosetta, purified similarly as wild type) QDFRKYEEGFDPYSMFTPEQIMGKDVRLLRIKKEGSLDLALEGGVDSPIGKVVVSAVYERGAAERHGGIVKGDEIMAINGKIVTDYTLAEAEAALQKAWNQGGDWIDLVVAVCPPKEYRDELTFF | Kd [3]: > 300 µM |
| 17.8 ± 1.1 µM | 18.1 ± 1.4 µM | YFP-Harmonin-a PDZ3c I476W (domain or fragment, human, UniProt Q9Y6N9-1 428-552, looked up, Harmonin-a1 (USH1C), human, residues 428-552 of UniProt Q9Y6N9-1; also called ^YFPPDZ3c (isoA) I476W; source: E. coli BL21 (DE3) Rosetta, purified similarly as wild type) QDFRKYEEGFDPYSMFTPEQIMGKDVRLLRIKKEGSLDLALEGGVDSPWGKVVVSAVYERGAAERHGGIVKGDEIMAINGKIVTDYTLAEAEAALQKAWNQGGDWIDLVVAVCPPKEYDDELTFF | – |
| 5.4 ± 1.5 µM | 6.11 ± 0.44 µM | YFP-Harmonin-a PDZ3c E469A (domain or fragment, human, UniProt Q9Y6N9-1 428-552, looked up, Harmonin-a1 (USH1C), human, residues 428-552 of UniProt Q9Y6N9-1; also called ^YFPPDZ3c (isoA) E469A; PDZ3 E469A; source: E. coli BL21 (DE3) Rosetta, purified similarly as wild type) QDFRKYEEGFDPYSMFTPEQIMGKDVRLLRIKKEGSLDLALAGGVDSPIGKVVVSAVYERGAAERHGGIVKGDEIMAINGKIVTDYTLAEAEAALQKAWNQGGDWIDLVVAVCPPKEYDDELTFF | – |
| 70.4 ± 7.2 µM | 38.1 ± 4.9 µM | YFP-Harmonin-a PDZ3c E469A-I476W (domain or fragment, human, UniProt Q9Y6N9-1 428-552, looked up, Harmonin-a1 (USH1C), human, residues 428-552 of UniProt Q9Y6N9-1; also called ^YFPPDZ3c (isoA) E469A-I476W; source: E. coli BL21 (DE3) Rosetta, purified similarly as wild type) QDFRKYEEGFDPYSMFTPEQIMGKDVRLLRIKKEGSLDLALAGGVDSPWGKVVVSAVYERGAAERHGGIVKGDEIMAINGKIVTDYTLAEAEAALQKAWNQGGDWIDLVVAVCPPKEYDDELTFF | – |
